Test results published in PMC12713436.

What was measured:
[1] = biological target: frutalin (FTL), galactose-specific jacalin-related lectin from Artocarpus altilis (syn. Artocarpus incisa) seeds (Artocarpus altilis (syn. Artocarpus incisa)); experiment: SEC; FTL alone on a Superdex column equilibrated in PBS + 50 mM D-galactose; single peak at Ve = 15.57 mL; apparent mass from calibration; oligomer of alpha-beta protomers
[2] = biological target: secretory immunoglobulin A1 (sIgA1) from human colostrum (human (endogenous in colostrum)) (UniProt P01591); experiment: dynamic light scattering; sIgA1 titrated with FTL (0.06–1.94 mg/mL); Z-average diameter against FTL:sIgA1 molar ratio; Hill fit; apparent KD
[3] = biological target: secretory immunoglobulin A1 (sIgA1) from human colostrum (human (endogenous in colostrum)) (UniProt P01591); experiment: BLI; Octet RED96; sIgA1 immobilised on AR2G biosensors via amine coupling, FTL as analyte; 25 °C; PBS with 0.02% Tween-20; global fit, 1:2 bivalent analyte model
[4] = biological target: secretory immunoglobulin A1 (sIgA1) from human colostrum (human (endogenous in colostrum)) (UniProt P01591)

For “frutalin (FTL), galactose-specific jacalin-related lectin from Artocarpus altilis (syn. Artocarpus incisa) seeds (natural protein)”, the stoichiometry N [1] was 2, the stoichiometry N [2] was 1 to 1.5 FTL:sIgA1 and the koff [3] was 0.00214 s⁻¹. For the same substance, the kon [3] was 596000 M⁻¹ s⁻¹ and the hemagglutination titer (rabbit erythrocytes) of the preformed FTL–sIgA1 complex at 1 mg/mL, with 0 to 200 mM D-galactose (∼2^8 at 200 mM); free FTL ∼2^17 (∼2^9 at 200 mM galactose); sIgA1 alone ∼2^4 [4] was 65500 HU.
